Measurements as given in patent US20050282743A1, “Molecular interactions in cells” (Arbor Vita Corporation, priority 2001, published 2005).
Each block holds one binder with its values, some of them ahead of it.

Tests used:
[1] = target: GST-CARD14 PDZ domain 1 (Homo sapiens (Human)), Q9BXL6; assay: G' assay; note: key of the grades not given here
[2] = target: T1, GST-APXL-1 PDZ domain 1 (Homo sapiens (Human)), Q13796; assay: G' assay; note: key of the grades not given here
T1 chain: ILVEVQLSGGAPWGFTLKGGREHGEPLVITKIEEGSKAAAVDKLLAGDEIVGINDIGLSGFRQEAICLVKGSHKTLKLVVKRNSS

[3] = target: T2, GST-KIAA0973 PDZ domain 1 (Homo sapiens (Human)), Q9Y2H9; assay: G' assay; note: key of the grades not given here
T2 chain: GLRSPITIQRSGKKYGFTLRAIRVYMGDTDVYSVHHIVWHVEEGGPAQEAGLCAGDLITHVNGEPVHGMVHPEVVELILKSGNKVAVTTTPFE

[4] = target: T3, GST-LU-1 PDZ domain 1 (Homo sapiens (Human)), Q76G19; assay: G' assay; note: key of the grades not given here
T3 chain: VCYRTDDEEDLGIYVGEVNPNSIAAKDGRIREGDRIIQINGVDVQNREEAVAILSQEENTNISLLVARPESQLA

[5] = target: T4, GST-DVL2 PDZ domain 1 (Homo sapiens (Human)), O14641; assay: G' assay; note: key of the grades not given here
T4 chain: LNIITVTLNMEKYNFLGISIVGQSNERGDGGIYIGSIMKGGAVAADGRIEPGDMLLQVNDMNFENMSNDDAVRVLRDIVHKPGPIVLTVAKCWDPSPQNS

[6] = target: T5, GST-MUPP1 PDZ domain 4 (Homo sapiens (Human)), O75970; assay: G' assay; note: key of the grades not given here
T5 chain: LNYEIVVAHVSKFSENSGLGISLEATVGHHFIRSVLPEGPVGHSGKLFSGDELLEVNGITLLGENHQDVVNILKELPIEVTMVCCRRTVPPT

[7] = target: T6, GST-MINT1 PDZ domain 2 (Mus musculus (Mouse)), B2RUJ5; assay: G' assay; note: key of the grades not given here
T6 chain: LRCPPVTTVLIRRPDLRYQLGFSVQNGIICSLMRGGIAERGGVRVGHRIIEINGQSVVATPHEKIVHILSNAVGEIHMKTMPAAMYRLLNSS

[8] = target: T7, GST-PTPL1 PDZ domain 5 (Homo sapiens (Human)), Q12923; assay: G' assay; note: key of the grades not given here
T7 chain: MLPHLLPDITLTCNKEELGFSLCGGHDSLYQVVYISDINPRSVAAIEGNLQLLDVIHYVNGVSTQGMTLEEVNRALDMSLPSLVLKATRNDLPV

[9] = target: T8, GST-KIAA1719 PDZ domain 3 (Homo sapiens (Human)), Q9C0E4; assay: G' assay; note: key of the grades not given here
T8 chain: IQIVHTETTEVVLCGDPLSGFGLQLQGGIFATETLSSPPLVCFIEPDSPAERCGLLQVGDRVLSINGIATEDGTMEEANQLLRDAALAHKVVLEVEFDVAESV

[10] = target: T9, GST-GRIP 1 PDZ domain 5 (Homo sapiens (Human)), Q9Y3R0; assay: G' assay; note: key of the grades not given here
T9 chain: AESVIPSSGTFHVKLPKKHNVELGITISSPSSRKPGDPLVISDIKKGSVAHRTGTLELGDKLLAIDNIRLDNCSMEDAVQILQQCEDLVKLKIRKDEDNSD

[11] = target: T10, GST-FLJ 10324 PDZ domain 1 [GST: P08515]; assay: G' assay; note: key of the grades not given here
T10 chain: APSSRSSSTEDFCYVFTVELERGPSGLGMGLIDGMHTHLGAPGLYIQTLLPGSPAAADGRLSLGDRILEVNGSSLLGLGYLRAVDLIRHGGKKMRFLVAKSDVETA

[12] = target: T11, GST-MUPP1 PDZ domain 9 (Homo sapiens (Human)), O75970; assay: G' assay; note: key of the grades not given here
T11 chain: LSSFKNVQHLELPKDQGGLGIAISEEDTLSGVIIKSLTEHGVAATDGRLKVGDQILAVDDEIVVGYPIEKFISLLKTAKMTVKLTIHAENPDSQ

[13] = target: T12, GST-AIPC PDZ domain 1 (Homo sapiens (Human)), O15018; assay: G' assay; note: key of the grades not given here
T12 chain: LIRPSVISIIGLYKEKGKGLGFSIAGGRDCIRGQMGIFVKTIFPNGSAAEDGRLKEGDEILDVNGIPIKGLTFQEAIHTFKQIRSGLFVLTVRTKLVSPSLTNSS

[14] = target: T13, GST-MINT1 PDZ domains 1, 2, Q02410; assay: G' assay; note: key of the grades not given here
T13 chain: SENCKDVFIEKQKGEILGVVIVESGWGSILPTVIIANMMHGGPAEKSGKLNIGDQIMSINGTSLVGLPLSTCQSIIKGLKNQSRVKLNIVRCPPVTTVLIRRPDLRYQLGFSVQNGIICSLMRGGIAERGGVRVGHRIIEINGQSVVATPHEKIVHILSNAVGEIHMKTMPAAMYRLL

[15] = target: T14, GST-ZO-1 PDZ domain 2 (Rattus norvegicus (Rat)), A0A0G2; assay: G' assay; note: key of the grades not given here
T14 chain: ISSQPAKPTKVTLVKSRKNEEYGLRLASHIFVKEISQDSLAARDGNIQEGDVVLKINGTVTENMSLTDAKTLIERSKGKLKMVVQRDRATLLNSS

[16] = target: T15, GST-KIAA0380 PDZ domain 1 (Homo sapiens (Human)), O15085; assay: G' assay; note: key of the grades not given here
T15 chain: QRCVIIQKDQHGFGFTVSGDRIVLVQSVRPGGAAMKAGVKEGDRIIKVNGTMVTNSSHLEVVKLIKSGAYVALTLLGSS

[17] = target: T16, GST-MUPP1 PDZ domain 7 (Homo sapiens (Human)), O75970; assay: G' assay; note: key of the grades not given here
T16 chain: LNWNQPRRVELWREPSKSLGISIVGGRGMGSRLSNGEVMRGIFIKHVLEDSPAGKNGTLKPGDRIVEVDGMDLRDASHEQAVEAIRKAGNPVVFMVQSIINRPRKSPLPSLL

[18] = target: T17, GST-GRIP 1 PDZ domain 6 (Mus musculus (Mouse)), Q925T6; assay: G' assay; note: key of the grades not given here
T17 chain: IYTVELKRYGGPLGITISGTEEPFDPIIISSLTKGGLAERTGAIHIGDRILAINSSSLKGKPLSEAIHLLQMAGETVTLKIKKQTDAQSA

[19] = target: T18, GST-PICK1 PDZ domain 1 (Bos taurus (Bovine)), Q2T9M1; assay: G' assay; note: key of the grades not given here
T18 chain: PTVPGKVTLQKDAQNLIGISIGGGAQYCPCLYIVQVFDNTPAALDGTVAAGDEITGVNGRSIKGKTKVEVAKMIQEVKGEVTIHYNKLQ

[20] = target: T19, GST-KIAA1719 PDZ domain 6 (Homo sapiens (Human)), Q9C0E4; assay: G' assay; note: key of the grades not given here
T19 chain: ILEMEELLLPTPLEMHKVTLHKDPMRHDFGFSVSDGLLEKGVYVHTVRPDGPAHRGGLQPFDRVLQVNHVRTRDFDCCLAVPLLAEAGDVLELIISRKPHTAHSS

[21] = target: T20, GST-INADL PDZ domain 3 (Homo sapiens (Human)), Q8NI35; assay: G' assay; note: key of the grades not given here
T20 chain: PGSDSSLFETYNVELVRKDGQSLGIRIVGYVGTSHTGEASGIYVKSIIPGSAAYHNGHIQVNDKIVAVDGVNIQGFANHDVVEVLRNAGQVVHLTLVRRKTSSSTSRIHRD

[22] = target: GST-PAR3 PDZ domain 3 (Homo sapiens (Human)), Q8TEW0; assay: G' assay; note: key of the grades not given here
GST-PAR3 PDZ domain 3 (Homo sapiens (Human)), Q8TEW0, sequence (Q8TEW0 579-681): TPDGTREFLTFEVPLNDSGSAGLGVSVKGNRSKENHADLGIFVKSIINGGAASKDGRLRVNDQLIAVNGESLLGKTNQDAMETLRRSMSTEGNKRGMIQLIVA

[23] = target: T21, GST-MUPP1 PDZ domain 3 (Homo sapiens (Human)), O75970; assay: G' assay; note: key of the grades not given here
T21 chain: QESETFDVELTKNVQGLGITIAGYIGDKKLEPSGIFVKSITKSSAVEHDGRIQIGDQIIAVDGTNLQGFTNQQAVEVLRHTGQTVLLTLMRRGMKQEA

[24] = target: T22, GST-KIAA1719 PDZ domain 5 (Homo sapiens (Human)), Q9C0E4; assay: G' assay; note: key of the grades not given here
T22 chain: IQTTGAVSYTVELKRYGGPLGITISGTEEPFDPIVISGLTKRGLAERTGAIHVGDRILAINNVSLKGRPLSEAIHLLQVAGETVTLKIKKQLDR

[25] = target: GST-PAR3 PDZ domain 3 (Homo sapiens (Human)), Q8TEW0; assay: G assay titration, PDZ 1 ug/ml
[26] = target: T10, GST-FLJ 10324 PDZ domain 1 [GST: P08515]; assay: G assay titration, PDZ 5 ug/ml
[27] = target: T11, GST-MUPP1 PDZ domain 9 (Homo sapiens …); assay: G assay titration, PDZ 5 ug/ml
[28] = target: T12, GST-AIPC PDZ domain 1 (Homo sapiens …); assay: G assay titration, PDZ 5 ug/ml
[29] = target: T13, GST-MINT1 PDZ domains 1, 2, Q02410; assay: G assay titration, PDZ 5 ug/ml
[30] = target: T14, GST-ZO-1 PDZ domain 2 (Rattus …); assay: G assay titration, PDZ 5 ug/ml
[31] = target: T16, GST-MUPP1 PDZ domain 7 (Homo sapiens …); assay: G assay titration, PDZ 5 ug/ml
[32] = target: T17, GST-GRIP 1 PDZ domain 6 (Mus musculus …); assay: G assay titration, PDZ 5 ug/ml
[33] = target: T18, GST-PICK1 PDZ domain 1 (Bos taurus …); assay: G assay titration, PDZ 5 ug/ml
[34] = target: T19, GST-KIAA1719 PDZ domain 6 (Homo sapiens …); assay: G assay titration, PDZ 5 ug/ml
[35] = target: T20, GST-INADL PDZ domain 3 (Homo sapiens …); assay: G assay titration, PDZ 5 ug/ml
[36] = target: T21, GST-MUPP1 PDZ domain 3 (Homo sapiens …); assay: G assay titration, PDZ 5 ug/ml
[37] = target: T22, GST-KIAA1719 PDZ domain 5 (Homo sapiens …); assay: G assay titration, PDZ 5 ug/ml
[38] = target: T23, GST-HEMBA 1003117 PDZ domain 1 (Homo sapiens (Human)), Q96JH8; assay: G' assay; note: key of the grades not given here
T23 chain: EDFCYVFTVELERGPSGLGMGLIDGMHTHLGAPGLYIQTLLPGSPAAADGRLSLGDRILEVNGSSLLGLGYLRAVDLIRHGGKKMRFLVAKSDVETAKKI

[39] = target: T24, GST-MPP2 PDZ domain 1 (Homo sapiens (Human)), Q14168; assay: G' assay; note: key of the grades not given here
T24 chain: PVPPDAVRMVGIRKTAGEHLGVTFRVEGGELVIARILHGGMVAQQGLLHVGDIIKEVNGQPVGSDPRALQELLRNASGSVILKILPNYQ

GST-CARD14 PDZ domain 1 (Homo sapiens (Human)), Q9BXL6, sequence (Q9BXL6 565-664): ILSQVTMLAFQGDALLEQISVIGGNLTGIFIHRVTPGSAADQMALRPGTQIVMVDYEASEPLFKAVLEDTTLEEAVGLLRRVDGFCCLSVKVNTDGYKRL

Classification [1]: 5 A450 class
Classification [2]: 3 A450 class
Classification [3]: 3 A450 class
Classification [4]: 4 A450 class
Classification [5]: 3 A450 class
Classification [6]: 3 A450 class
Classification [7]: 3 A450 class
Classification [8]: 3 A450 class
Classification [9]: 5 A450 class
Classification [10]: 1 A450 class
Binder: DFRPSFKHILFRRARRGFRQ (modifications not checked) [alpha-2C Adrenergic receptor]

Classification [11]: 3 A450 class
Classification [12]: 3 A450 class
Classification [13]: 2 A450 class
Classification [14]: 3 A450 class
Classification [15]: 2 A450 class
Classification [16]: 1 A450 class
Classification [17]: 3 A450 class
Classification [18]: 2 A450 class
Classification [19]: 1 A450 class
Classification [20]: 2 A450 class
Classification [21]: 3 A450 class
Classification [22]: 4 A450 class
Classification [23]: 4 A450 class
Classification [24]: 2 A450 class
Kd [25]: 600 nM
Kd [26]: 600 nM
Kd [27]: 700 nM
Kd [28]: 600 nM
Kd [29]: 500 nM
Kd [30]: 400 nM
Kd [31]: 800 nM
Kd [32]: 500 nM
Kd [33]: 1000 nM
Kd [34]: 800 nM
Kd [35]: 600 nM
Kd [36]: 400 nM
Kd [37]: 1000 nM
Binder: HHLVAQRDIRQFQLQHWLAI (modifications not checked) [noradrenaline transporter]

Classification [1]: 2 A450 class
Classification [38]: 2 A450 class
Classification [39]: 2 A450 class
Binder: LAVLAYSITLVMLWSIWQYA (modifications not checked) [Serotonin receptor 3a]
